Data as given in US20050079543A1 (ROCKEFELLER UNIVERSITY, published 2005).

Columns and labels:
[1] = molecular target: the molecule itself; assay: gel mobility shift with extracts of C84 cells
Experimental: (§1) Mobility shift analysis was performed with extracts from these stable cell lines (FIG. 18B). Extracts of IFN-γ-treated C84 cells produced a faster migrating gel shift band than extracts of treated C91L cells. Most importantly, extracts from IFN-γ-treated Cmx cells expressing both Stat84 and Stat91L proteins formed an additional intermediate gel shift band. Anti-91, an antiserum against the C-terminal 38 amino acids of Stat91 (12) that are absent in Stat84, specifically removed the top two shift bands seen with the Cmx extracts. Anti-91, an antiserum against amino acids 609 to 716 (15) that recognizes both Stat91L and Stat84, proteins inhibited the binding of all three shift bands. Thus, the middle band formed by extracts of the Cmx cells is clearly identified as a heterodimer of Stat84 and Stat91L. We concluded that both Stat91 and Stat84 bind DNA as homodimers and, if present in the same cell, will form heterodimers.

[2] = molecular target: T1, Stat91L, activated (from IFN-γ-treated C91L or Cmx cells) (human, UniProt P42224 2-750, activated by IFN-γ treatment of the cells; phosphotyrosine at 701 as stated for Stat91); assay: gel mobility shift with extracts of cells that express both proteins, with antisera
T1 construct: Expressed in U3A cells that lack Stat91/84; also called long form of Stat91; MNC-91L product; not shown: C-terminal tag of 34 amino acids encoded by the pMNC vector
T1 sequence: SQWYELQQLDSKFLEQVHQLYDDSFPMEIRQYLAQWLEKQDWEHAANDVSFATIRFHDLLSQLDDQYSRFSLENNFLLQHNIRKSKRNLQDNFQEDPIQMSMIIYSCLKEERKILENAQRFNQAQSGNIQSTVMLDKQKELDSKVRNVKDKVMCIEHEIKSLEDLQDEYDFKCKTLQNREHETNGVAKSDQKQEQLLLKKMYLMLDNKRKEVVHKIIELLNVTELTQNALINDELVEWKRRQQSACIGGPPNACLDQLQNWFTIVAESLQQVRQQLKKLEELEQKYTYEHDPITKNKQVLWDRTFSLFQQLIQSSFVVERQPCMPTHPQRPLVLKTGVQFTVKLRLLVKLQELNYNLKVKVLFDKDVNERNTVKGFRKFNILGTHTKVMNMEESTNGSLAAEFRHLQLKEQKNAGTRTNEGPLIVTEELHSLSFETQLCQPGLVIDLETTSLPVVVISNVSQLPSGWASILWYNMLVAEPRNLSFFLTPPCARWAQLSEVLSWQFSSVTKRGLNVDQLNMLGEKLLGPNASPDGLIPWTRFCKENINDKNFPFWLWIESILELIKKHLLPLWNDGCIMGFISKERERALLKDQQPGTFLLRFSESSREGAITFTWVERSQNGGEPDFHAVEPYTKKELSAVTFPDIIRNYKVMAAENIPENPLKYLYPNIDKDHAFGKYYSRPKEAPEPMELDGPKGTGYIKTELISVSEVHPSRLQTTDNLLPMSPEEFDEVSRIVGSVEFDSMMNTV
Experimental: as §1

B1: Stat84, activated (from IFN-γ-treated C84 or Cmx cells) (other)
chain: SQWYELQQLDSKFLEQVHQLYDDSFPMEIRQYLAQWLEKQDWEHAANDVSFATIRFHDLLSQLDDQYSRFSLENNFLLQHNIRKSKRNLQDNFQEDPIQMSMIIYSCLKEERKILENAQRFNQAQSGNIQSTVMLDKQKELDSKVRNVKDKVMCIEHEIKSLEDLQDEYDFKCKTLQNREHETNGVAKSDQKQEQLLLKKMYLMLDNKRKEVVHKIIELLNVTELTQNALINDELVEWKRRQQSACIGGPPNACLDQLQNWFTIVAESLQQVRQQLKKLEELEQKYTYEHDPITKNKQVLWDRTFSLFQQLIQSSFVVERQPCMPTHPQRPLVLKTGVQFTVKLRLLVKLQELNYNLKVKVLFDKDVNERNTVKGFRKFNILGTHTKVMNMEESTNGSLAAEFRHLQLKEQKNAGTRTNEGPLIVTEELHSLSFETQLCQPGLVIDLETTSLPVVVISNVSQLPSGWASILWYNMLVAEPRNLSFFLTPPCARWAQLSEVLSWQFSSVTKRGLNVDQLNMLGEKLLGPNASPDGLIPWTRFCKENINDKNFPFWLWIESILELIKKHLLPLWNDGCIMGFISKERERALLKDQQPGTFLLRFSESSREGAITFTWVERSQNGGEPDFHAVEPYTKKELSAVTFPDIIRNYKVMAAENIPENPLKYLYPNIDKDHAFGKYYSRPKEAPEPMELDGPKGTGYIKTELISVSEV
modifications: activated by IFN-γ treatment of the cells (tyrosine phosphorylation; Tyr-701 is stated for Stat91)
notes: Expressed in U3A cells that lack Stat91/84; also called MNC-84 product
[1]
  binding result: binds
[2]
  binding result: binds
